PMC5000626, “Urinary Dopamine as a Potential Index of the Transport Activity of Multidrug and Toxin Extrusion in the Kidney” (International Journal of Molecular Sciences, 2016)

Substrate: NCCc1ccc(O)c(O)c1
Experiment: cells, lysate or membranes
Conditions: other: [3H]dopamine uptake at 1 min, HEK293 cells expressing mMATE1, mean ± S.E., n=3; pH 7.4; 37.0 °C

B1: mMATE1 (Mus musculus) (protein)
chain: MERTEESAPGPGGADAASERRGLRCLLLPGFLEELRALLVLAGPAFLAQLMMFLISFISSVFCGHLGKLELDAVTLAIAVINVTGISVGHGLSSACDTLISQTYGSQNLKHVGVILQRGTLILLLCCFPCWALFINTEQILLLFRQDPDVSRLTQTYVMIFIPALPAAFLYTLQVKYLLNQGIVLPQIMTGIAANLVNALANYVFLYHLHLGVMGSALANTISQFALAIFLFLYILWRRLHQATWGGWSWECLQDWASFLRLAIPSMLMLCIEWWAYEVGSFLSGILGMVELGAQSITYELAIIVYMIPSGFSVAANVRVGNALGAGNIDQAKKSSAISLIVTELFAVTFCVLLLGCKDLVGYIFTTDRDIVALVAQVIPIYAVSHLFEGLACTCGGILRGTGNQKVGAIVNAIGYYVIGLPIGIALMFAAKLGVIGLWSGIIICTTCQTTCFLAFIARLNWKRACQQAQVHANLKVNVALNSAVSHEPAHPVCPESHGEIMMTDLEKKDETQLDQPMNQQQALPIRPKDSNKLSGKQLALRRGLLLLGVVLVLVGGILVRVYIRIE
- Km: 530 ± 80 µM
